Series [1] relates to T1, CC(C)=CCC/C(C)=C/CC/C(C)=C/CC/C=C(\C)CC/C=C(\C)CC[C@@H]1OC1(C)C.
T1 construct: full length, 759 residues; yeast codon-optimised in pCEV-G4-Km, S. cerevisiae BY4742, no tag told
Nature of the series: GC-MS of reaction product, yeast homogenate (Methods; Results text says purified variants). Format: biochemical, Siraitia grosvenorii. As to conditions: 30 °C, pH 7.0, 100 mM sodium phosphate, 0.1% Triton X-100, natural allele 50C573L.

Series [2] has the same test system. The description is as above. In kind it is biochemical, Siraitia grosvenorii. As to conditions: 30 °C, pH 7.0, 100 mM sodium phosphate, 0.1% Triton X-100, allele 50R573L. From the text:
GC-MS of reaction product, yeast homogenate (Methods; Results text says purified variants) on SgCS (cucurbitadienol synthase, wild type 50R573L)

Data on two substances can be found in article PMC6384864, “Identification of a Novel Specific Cucurbitadienol Synthase Allele in Siraitia grosvenorii Correlates with High Catalytic Efficiency” (Molecules, 2019).

Sequence of SgCS (cucurbitadienol synthase, wild type 50R573L) (Siraitia grosvenorii; R50C) (chain, as listed by the source R50C): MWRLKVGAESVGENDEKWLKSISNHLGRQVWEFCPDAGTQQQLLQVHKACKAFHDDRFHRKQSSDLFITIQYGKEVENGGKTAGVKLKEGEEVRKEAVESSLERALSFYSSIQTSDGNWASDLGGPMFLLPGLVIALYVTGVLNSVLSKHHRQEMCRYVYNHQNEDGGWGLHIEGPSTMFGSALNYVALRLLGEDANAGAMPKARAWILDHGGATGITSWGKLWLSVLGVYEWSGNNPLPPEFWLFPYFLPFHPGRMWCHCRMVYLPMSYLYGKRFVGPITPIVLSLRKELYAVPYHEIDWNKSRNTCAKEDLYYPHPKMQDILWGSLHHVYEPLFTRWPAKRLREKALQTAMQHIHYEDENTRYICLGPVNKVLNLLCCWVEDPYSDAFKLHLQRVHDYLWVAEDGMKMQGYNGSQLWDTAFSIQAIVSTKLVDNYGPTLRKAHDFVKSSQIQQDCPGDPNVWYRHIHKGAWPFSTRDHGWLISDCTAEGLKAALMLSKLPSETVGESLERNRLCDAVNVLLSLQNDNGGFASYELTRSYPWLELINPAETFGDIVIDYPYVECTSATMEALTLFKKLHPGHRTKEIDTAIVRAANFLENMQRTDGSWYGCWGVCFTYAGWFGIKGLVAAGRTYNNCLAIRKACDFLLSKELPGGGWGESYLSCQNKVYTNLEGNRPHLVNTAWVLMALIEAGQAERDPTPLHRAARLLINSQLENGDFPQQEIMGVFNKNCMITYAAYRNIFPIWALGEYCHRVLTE
Sequence of SgCS (cucurbitadienol synthase, wild type 50R573L) (Siraitia grosvenorii) (chain, as listed by the source): as the sequence (chain, as listed by the source R50C) above, with C50R counted along it

Usually Km stands for the substrate concentration at which the rate is half of its maximum. The kcat is the maximal rate divided by the concentration of active sites. As usually defined, the kcat/Km is the second-order rate constant that governs catalysis at low substrate concentration. On to “SgCS (cucurbitadienol synthase, wild type 50R573L) (Siraitia grosvenorii; R50C)”, for which, in series [1], the Km came out at 0.32 µM, the kcat turned out to be 0.0128 s⁻¹ and the kcat/Km is 40200 M⁻¹ s⁻¹.
In the case of “SgCS (cucurbitadienol synthase, wild type 50R573L) (Siraitia grosvenorii)”, in series [2], the Michaelis constant (Km) was 0.29 µM, the kcat came to 0.0147 s⁻¹ and the kcat/Km stood at 49700 M⁻¹ s⁻¹.
